Test [1] has as its target '3tag' PCNA^S228I (human) (UniProt P12004). Briefly: SPR; reverse orientation: ~1000 RU biotinylated 3tag-PCNA on an SA chip; GST-PIP fusion as analyte, single cycle kinetics (Cdt1 highest 44.5 μM, p21 highest 27.9 μM); HBS-EP with 1 g/l BSA. For orientation: SPR reads the build-up and loss of mass on a sensor chip optically.
In test [2] the target is GST-Fen1 PIP box fusion (UniProt P39748). Nature of the test: SPR; ~1000 RU GST-PIP fusion bound to a CM5 chip (acetate pH 5.5), GST as control lane; His-S-PCNA as analyte, 10 point 2x dilution series from 12 μM; equilibrium of binding, steady state affinity fit; HBS-EP (0.01 M HEPES pH 7.4, 0.15 M NaCl, 3 mM EDTA, 0.0005% IGEPAL) with 1 g/l BSA; Biacore T200.
Chain of UniProt P39748 (P39748 whole entry, the tested form may be a part): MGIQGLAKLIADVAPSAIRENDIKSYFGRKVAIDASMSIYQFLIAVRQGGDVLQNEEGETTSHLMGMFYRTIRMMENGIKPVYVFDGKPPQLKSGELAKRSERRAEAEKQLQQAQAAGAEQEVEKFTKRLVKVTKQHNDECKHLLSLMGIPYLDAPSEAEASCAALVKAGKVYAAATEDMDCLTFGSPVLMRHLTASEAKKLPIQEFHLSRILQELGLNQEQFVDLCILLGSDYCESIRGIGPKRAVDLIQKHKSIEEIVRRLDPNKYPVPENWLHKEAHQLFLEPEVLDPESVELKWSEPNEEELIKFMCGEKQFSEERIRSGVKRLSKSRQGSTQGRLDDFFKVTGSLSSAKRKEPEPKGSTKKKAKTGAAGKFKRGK
Test [3] deals with GST-p21 PIP box fusion (UniProt P38936). Described as above.
Chain of UniProt P38936 (P38936 whole entry, the tested form may be a part): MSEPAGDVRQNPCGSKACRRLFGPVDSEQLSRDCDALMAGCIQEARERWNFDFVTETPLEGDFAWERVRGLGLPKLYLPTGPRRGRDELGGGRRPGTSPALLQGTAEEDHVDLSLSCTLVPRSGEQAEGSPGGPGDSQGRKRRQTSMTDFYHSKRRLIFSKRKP

What is called Kd is the constant that tells how readily two partners part at equilibrium. Low readings indicate a tighter complex, high ones a looser complex.

In the case of “GST-p21 PIP box fusion (from UniProt P38936 1-164) (domain or fragment)”, the reduction of the affinity against PCNA^WT in test [1] stood at 10%.

“His-S-tagged PCNA^S228I (from UniProt P12004 1-258) (natural protein)”: the Kd in test [2] amounted to 15000 nM; in test [3], 3700 nM.

Turning to “His-S-tagged PCNA^WT (from UniProt P12004 1-261) (natural protein)”, the Kd in test [2] is 1100 nM; in test [3], 1800 nM.
